Reference: paper PMC4656143

Target: opto-DN-CREB
Assay: thermal relaxation kinetics

B1: CREB-bZIP (domain or fragment)
chain: ARKREVRLMKNREAARECRRKKKEYVKCLENRVAVLENQNKTLIEELKALKDLYCHKSD
  stoichiometry N: 1
